Experiments:
[1] = biological target: T1, recombinant hCD16a/FcγRIIIa (human, UniProt P08637 17-208); test: ELISA, recombinant FcγR immobilized at 2 µg/ml, detection with peroxidase-labeled anti-human IgG
T1 construct: Bought recombinant protein, immobilized on plastic at 2 µg/ml

[2] = biological target: T2, recombinant hCD32a/FcγRIIa (human, UniProt P12318 36-218); test: as above
T2 construct: Bought recombinant protein, immobilized on plastic at 2 µg/ml
T2 sequence (looked up): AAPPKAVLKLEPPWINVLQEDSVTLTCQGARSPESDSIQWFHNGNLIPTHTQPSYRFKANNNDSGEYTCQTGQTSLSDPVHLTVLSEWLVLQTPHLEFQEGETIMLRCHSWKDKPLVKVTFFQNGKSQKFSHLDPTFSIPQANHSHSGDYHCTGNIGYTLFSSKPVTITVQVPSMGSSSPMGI

recombinant hCD64/FcγRI = biological target: T3, recombinant hCD64/FcγRI (human, UniProt P12314 16-288); test: as above
T3 construct: Bought recombinant protein, immobilized on plastic at 2 µg/ml
T3 sequence (P12314 16-288 limits assumed): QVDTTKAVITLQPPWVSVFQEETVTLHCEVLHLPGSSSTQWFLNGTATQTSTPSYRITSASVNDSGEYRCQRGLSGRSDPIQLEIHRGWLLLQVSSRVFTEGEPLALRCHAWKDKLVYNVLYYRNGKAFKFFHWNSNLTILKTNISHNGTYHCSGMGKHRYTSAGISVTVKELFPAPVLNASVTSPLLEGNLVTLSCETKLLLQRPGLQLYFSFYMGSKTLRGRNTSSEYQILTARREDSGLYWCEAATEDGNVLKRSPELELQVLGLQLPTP

[3] = biological target: T4, human CD127 (Interleukin-7 receptor subunit alpha) (human, UniProt P16871 21-459); test: flow cytometry on ALL cell lines, 10 ug/mL antibody, fold change of PE geometric mean against isotype control
T4 construct: Endogenous CD127 on human ALL cell lines (HPB-ALL, DND41, 697, NALM6, REH) and on patient cells; no signal peptide limits are stated; also called IL7R-a; IL-7R
T4 sequence: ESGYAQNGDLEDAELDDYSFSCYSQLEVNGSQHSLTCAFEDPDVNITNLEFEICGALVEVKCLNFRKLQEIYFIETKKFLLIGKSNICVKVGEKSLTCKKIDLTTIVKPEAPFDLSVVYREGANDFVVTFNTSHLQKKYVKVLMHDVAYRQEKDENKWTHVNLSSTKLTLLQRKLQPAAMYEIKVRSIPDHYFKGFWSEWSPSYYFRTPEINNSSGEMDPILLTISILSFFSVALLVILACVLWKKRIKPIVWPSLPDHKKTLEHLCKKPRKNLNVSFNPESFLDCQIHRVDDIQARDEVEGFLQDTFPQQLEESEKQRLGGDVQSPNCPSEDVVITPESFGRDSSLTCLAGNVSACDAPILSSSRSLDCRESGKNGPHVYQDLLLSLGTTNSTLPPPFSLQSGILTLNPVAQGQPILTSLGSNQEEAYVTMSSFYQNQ

T1 sequence (P08637 17-208 limits assumed): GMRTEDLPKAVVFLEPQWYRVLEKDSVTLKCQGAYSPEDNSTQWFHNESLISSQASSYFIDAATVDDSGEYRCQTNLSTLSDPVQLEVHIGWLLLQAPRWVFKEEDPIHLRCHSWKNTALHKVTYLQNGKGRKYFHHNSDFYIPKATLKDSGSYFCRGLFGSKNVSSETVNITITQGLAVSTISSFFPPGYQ

binding result [1]: no binding | binding result [2]: no binding | binding result (recombinant hCD64/FcγRI): no binding | binding result [3]: binds
B1: N13B2-hVL6 (antibody, human IgG4 S228P, kappa)
heavy: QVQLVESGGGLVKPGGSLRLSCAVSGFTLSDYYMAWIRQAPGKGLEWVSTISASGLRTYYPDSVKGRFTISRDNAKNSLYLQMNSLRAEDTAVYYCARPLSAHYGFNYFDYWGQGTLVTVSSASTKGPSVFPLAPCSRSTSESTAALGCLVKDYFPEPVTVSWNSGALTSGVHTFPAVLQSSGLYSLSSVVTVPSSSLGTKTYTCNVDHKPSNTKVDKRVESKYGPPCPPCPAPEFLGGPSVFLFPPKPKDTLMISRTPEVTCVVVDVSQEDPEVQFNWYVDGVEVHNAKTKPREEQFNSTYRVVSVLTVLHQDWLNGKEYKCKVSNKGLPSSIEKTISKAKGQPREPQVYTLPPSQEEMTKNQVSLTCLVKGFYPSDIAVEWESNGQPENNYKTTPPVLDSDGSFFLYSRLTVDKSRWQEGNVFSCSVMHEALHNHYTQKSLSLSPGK
light: DIQMTQSPSSLSASVGDRVTITCRTSEDIYQGLAWYQQKPGKAPKLLLYSANTLHIGVPSRFSGSGSGTDYTLTISSLQPEDFATYYCQQYYDYPLAFGGGTKVEIKRTVAAPSVFIFPPSDEQLKSGTASVVCLLNNFYPREAKVQWKVDNALQSGNSQESVTEQDSKDSTYSLSSTLTLSKADYEKHKVYACEVTHQGLSSPVTKSFNRGEC
notes: Humanized antagonist anti-CD127 IgG4 antibody; also called NB13B2-hVL6; N13B6-hVL6; copies: 2 + 2

From patent US20230227565A1 (OSE IMMUNOTHERAPEUTICS, published 2023)
